Measured values as given in patent US20110263454A1, “Methods of Identifying Functional Characteristics of Promoters, Transcription Modifying Proteins and Transcription Modulating Agents” (Salk Institute for Biological Studies, priority 2008, published 2011).

B1: RORb: RAR-related Orphan Receptor β (NR1F2), cDNA driver (protein, UniProt Q92753 1-470, looked up)
Nuclear receptor ROR-beta: MCENQLKTKADATAQIEVIPCKICGDKSSGIHYGVITCEGCKGFFRRSQQNNASYSCPRQRNCLIDRTNRNRCQHCRLQKCLALGMSRDAVKFGRMSKKQRDSLYAEVQKHQQRLQEQRQQQSGEAEALARVYSSSISNGLSNLNNETSGTYANGHVIDLPKSEGYYNVDSGQPSPDQSGLDMTGIKQIKQEPIYDLTSVPNLFTYSSFNNGQLAPGITMTEIDRIAQNIIKSHLETCQYTMEELHQLAWQTHTYEEIKAYQSKSREALWQQCAIQITHAIQYVVEFAKRITGFMELCQNDQILLLKSGCLEVVLVRMCRAFNPLNNTVLFEGKYGGMQMFKALGSDDLVNEAFDFAKNLCSLQLTEEEIALFSSAVLISPDRAWLIEPRKVQKLQEKIYFALQHVIQKNHLDDETLAKLIAKIPTITAVCNLHGEKLQVFKQSHPEIVNTLFPPLYKELFNPDCATGCK
B2: TR4: Testicular Orphan Nuclear Receptor 4 (NR2C2), cDNA driver (protein, UniProt P49116 1-596, looked up)
Nuclear receptor subfamily 2 …: MTSPSPRIQIISTDSAVASPQRIQIVTDQQTGQKIQIVTAVDASGSPKQQFILTSPDGAGTGKVILASPETSSAKQLIFTTSDNLVPGRIQIVTDSASVERLLGKTDVQRPQVVEYCVVCGDKASGRHYGAVSCEGCKGFFKRSVRKNLTYSCRSNQDCIINKHHRNRCQFCRLKKCLEMGMKMESVQSERKPFDVQREKPSNCAASTEKIYIRKDLRSPLIATPTFVADKDGARQTGLLDPGMLVNIQQPLIREDGTVLLATDSKAETSQGALGTLANVVTSLANLSESLNNGDTSEIQPEDQSASEITRAFDTLAKALNTTDSSSSPSLADGIDTSGGGSIHVISRDQSTPIIEVEGPLLSDTHVTFKLTMPSPMPEYLNVHYICESASRLLFLSMHWARSIPAFQALGQDCNTSLVRACWNELFTLGLAQCAQVMSLSTILAAIVNHLQNSIQEDKLSGDRIKQVMEHIWKLQEFCNSMAKLDIDGYEYAYLKAIVLFSPDHPGLTSTSQIEKFQEKAQMELQDYVQKTYSEDTYRLARILVRLPALRLMSSNITEELFFTGLIGNVSIDSIIPYILKMETAEYNGQITGASL
B3: HNF4g: Hepatocyte Nuclear Factor γ (NR2A2), cDNA driver (protein, UniProt Q14541 1-408, looked up)
Hepatocyte nuclear factor …: MNTTDNGVNCLCAICGDRATGKHYGASSCDGCKGFFRRSIRKSHVYSCRFSRQCVVDKDKRNQCRYCRLRKCFRAGMKKEAVQNERDRISTRRSTFDGSNIPSINTLAQAEVRSRQISVSSPGSSTDINVKKIASIGDVCESMKQQLLVLVEWAKYIPAFCELPLDDQVALLRAHAGEHLLLGATKRSMMYKDILLLGNNYVIHRNSCEVEISRVANRVLDELVRPFQEIQIDDNEYACLKAIVFFDPDAKGLSDPVKIKNMRFQVQIGLEDYINDRQYDSRGRFGELLLLLPTLQSITWQMIEQIQFVKLFGMVKIDNLLQEMLLGGASNDGSHLHHPMHPHLSQDPLTGQTILLGPMSTLVHADQISTPETPLPSPPQGSGQEQYKIAANQASVISHQHLSKQKQL
B4: Erb: Estrogen Receptor β (NR3A2, ERb), cDNA driver (protein, UniProt Q92731 1-530, looked up)
Estrogen receptor beta: MDIKNSPSSLNSPSSYNCSQSILPLEHGSIYIPSSYVDSHHEYPAMTFYSPAVMNYSIPSNVTNLEGGPGRQTTSPNVLWPTPGHLSPLVVHRQLSHLYAEPQKSPWCEARSLEHTLPVNRETLKRKVSGNRCASPVTGPGSKRDAHFCAVCSDYASGYHYGVWSCEGCKAFFKRSIQGHNDYICPATNQCTIDKNRRKSCQACRLRKCYEVGMVKCGSRRERCGYRLVRRQRSADEQLHCAGKAKRSGGHAPRVRELLLDALSPEQLVLTLLEAEPPHVLISRPSAPFTEASMMMSLTKLADKELVHMISWAKKIPGFVELSLFDQVRLLESCWMEVLMMGLMWRSIDHPGKLIFAPDLVLDRDEGKCVEGILEIFDMLLATTSRFRELKLQHKEYLCVKAMILLNSSMYPLVTATQDADSSRKLAHLLNAVTDALVWVIAKSGISSQQQSMRLANLLMLLSHVRHASNKGMEHLLNMKCKNVVPVYDLLLEMLNAHVLRGCKSSITGSECSPAEDSKSKEGSQNPQSQ
B5: TR2: Testicular Orphan Nuclear Receptor 2 (NR2C1), cDNA driver (protein, UniProt P13056 1-603, looked up)
Nuclear receptor subfamily 2 …: MATIEEIAHQIIEQQMGEIVTEQQTGQKIQIVTALDHNTQGKQFILTNHDGSTPSKVILARQDSTPGKVFLTTPDAAGVNQLFFTTPDLSAQHLQLLTDNSPDQGPNKVFDLCVVCGDKASGRHYGAVTCEGCKGFFKRSIRKNLVYSCRGSKDCIINKHHRNRCQYCRLQRCIAFGMKQDSVQCERKPIEVSREKSSNCAASTEKIYIRKDLRSPLTATPTFVTDSESTRSTGLLDSGMFMNIHPSGVKTESAVLMTSDKAESCQGDLSTLANVVTSLANLGKTKDLSQNSNEMSMIESLSNDDTSLCEFQEMQTNGDVSRAFDTLAKALNPGESTACQSSVAGMEGSVHLITGDSSINYTEKEGPLLSDSHVAFRLTMPSPMPEYLNVHYIGESASRLLFLSMHWALSIPSFQALGQENSISLVKAYWNELFTLGLAQCWQVMNVATILATFVNCLHNSLQQDKMSTERRKLLMEHIFKLQEFCNSMVKLCIDGYEYAYLKAIVLFSPDHPSLENMEQIEKFQEKAYVEFQDYITKTYPDDTYRLSRLLLRLPALRLMNATITEELFFKGLIGNIRIDSVIPHILKMEPADYNSQIIGHSI

Legend:
mUCP3 promoter = assay: NHR-promoter luciferase screen, mUCP3 promoter; format: cell-based, mouse; settings: for Normalized Luc. act., normalized to control / Luc. act., normalized to lacZ: mUCP3 promoter reporter; for Normalized Luc. act., normalized to control: HR without or with its ligand, relative to control; for Luc. act., normalized to lacZ: hormone receptor (HR) without or with its ligand; for mUCP3 promoter reporter activity: transcription factor +/- ligand, control = 1.00
How it was run: (§1)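 CV-1 cells were co-transfected with 50 ng NHR (homodimer or NHR/RXR heterodimer), 100 ng promoter-luciferase construct and 50 ng LacZ. Luciferase was normalized to LacZ and to a no-NHR/no-ligand control.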

hMyoD promoter = assay: NHR-promoter luciferase screen, hMyoD promoter; format: cell-based, human; settings: for Luc. act., normalized to lacZ / Normalized Luc. act., normalized to control: MyoD promoter reporter, co-transfected HR, without or with its ligand; for Normalized Luc. act., normalized to control: relative to control; for luciferase activity normalized to lacZ activity and to a control, hMyoD: hMyoD promoter-luciferase, CV-1 cells, NHR +/- ligand, control = 1.00
How it was run: as §1

hCAR promoter = assay: NHR-promoter luciferase screen, hCAR promoter; format: cell-based, human; settings: for luciferase activity normalized to lacZ activity and to a control, hCAR: hCAR promoter-luciferase, CV-1 cells, NHR +/- ligand, control = 1.00; for Luc. act., normalized to lacZ / Normalized Luc. act., normalized to control: hCAR promoter, HR/ligand component
How it was run: as §1

mNPY promoter = assay: NHR-promoter luciferase screen, mNPY promoter; format: cell-based, mouse; settings: for Results of assays of transcription factor (+/- ligand) with mNPY: Table 6d, luciferase activity relative to control (control = 1.00); for Luc. act., normalized to lacZ / Normalized Luc. act., normalized to control: mNPY promoter, HR component with or without ligand; for Normalized Luc. act., normalized to control: relative to control
How it was run: as §1

mABCA1 promoter = assay: NHR-promoter luciferase screen, mABCA1 promoter; format: cell-based, mouse; settings: for Luc. act., normalized to lacZ / Normalized Luc. act., normalized to control: ABCA1 promoter, hormone receptor with or without its ligand; for Normalized Luc. act., normalized to control: relative to control; for mABCA1 promoter reporter activity: transcription factor +/- ligand, control = 1.00
How it was run: as §1

mDio2 promoter = assay: NHR-promoter luciferase screen, mDio2 promoter; format: cell-based, mouse; settings: for Luc. act., normalized to lacZ / Normalized Luc. act., normalized to control: Dio2, HR component without or with its ligand; for mDio2 promoter reporter activity: transcription factor +/- ligand, control = 1.00
How it was run: as §1

Molecule | Normalized Luc. act., normalized to control (mUCP3 promoter) | Luc. act., normalized to lacZ (mUCP3 promoter) | mUCP3 promoter reporter activity (mUCP3 promoter) | Luc. act., normalized to lacZ (hMyoD promoter) | Normalized Luc. act., normalized to control (hMyoD promoter) | luciferase activity normalized to lacZ activity and to a control, hMyoD (hMyoD promoter) | luciferase activity normalized to lacZ activity and to a control, hCAR (hCAR promoter) | Luc. act., normalized to lacZ (hCAR promoter) | Normalized Luc. act., normalized to control (hCAR promoter) | Results of assays of transcription factor (+/- ligand) with mNPY (mNPY promoter) | Luc. act., normalized to lacZ (mNPY promoter) | Normalized Luc. act., normalized to control (mNPY promoter) | Luc. act., normalized to lacZ (mABCA1 promoter) | Normalized Luc. act., normalized to control (mABCA1 promoter) | mABCA1 promoter reporter activity (mABCA1 promoter) | Luc. act., normalized to lacZ (mDio2 promoter) | Normalized Luc. act., normalized to control (mDio2 promoter) | mDio2 promoter reporter activity (mDio2 promoter)
B1 | 1.3 | 0.9 | 1.33 | 73.9 | 1.2 | 1.17 | 1.05 | 33.3 | 1.1 | 1.12 | 94.2 | 1.1 | 26.4 | 4.7 | 4.69 | 23.1 | 1.5 | 1.47
B2 | 3.2 | 2.2 | 3.19 | 213.9 | 3.4 | 3.38 | 3.15 | 99.4 | 3.1 | 2.86 | 239.8 | 2.9 | 36.4 | 6.5 | 6.49 | 51.9 | 3.3 | 3.31
B3 | 0.8 | 0.6 | 0.84 | 67.2 | 1.1 | 1.06 | 0.81 | 25.5 | 0.8 | 0.96 | 80.7 | 1.0 | 11.3 | 2.0 | 2.01 | 18.0 | 1.1 | 1.14
B4 | 1.3 | 0.9 | 1.28 | 50.6 | 0.8 | 0.80 | 0.81 | 25.7 | 0.8 | 0.79 | 66.5 | 0.8 | 12.4 | 2.2 | 2.21 | 19.9 | 1.3 | 1.27
B5 | 2.0 | 1.4 | 2.01 | 83.1 | 1.3 | 1.31 | 2.30 | 72.7 | 2.3 | 1.27 | 106.6 | 1.3 | 31.2 | 5.6 | 5.55 | 33.8 | 2.2 | 2.15
